Patent publication US20090325883A1 (LES LABORATOIRES SERVIER, published 2009)

molecular target: T1, Bcl-XL (UniProt Q07817 1-209); assay: fluorescence polarisation competition; 15 nM Bak BH3 carboxyfluorescein, 100 nM Bcl-XL
T1 construct: also called anti-apoptotic member Bcl-XL
T1 sequence (Q07817 1-209): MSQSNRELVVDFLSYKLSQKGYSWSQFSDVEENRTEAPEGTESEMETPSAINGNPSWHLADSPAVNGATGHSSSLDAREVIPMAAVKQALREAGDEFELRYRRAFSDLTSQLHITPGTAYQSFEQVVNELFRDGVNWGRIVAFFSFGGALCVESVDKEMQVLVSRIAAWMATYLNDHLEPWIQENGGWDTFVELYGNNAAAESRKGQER

Binder	Ki [µM]
VMTQEVGQLLQDMGDDVYQQYRSL (also called peptide b)) [Kiaa 1578 peptide]	32
MATVIHNPLKALGDQFYKEAIEHC (also called peptide a)) [Cerd4 peptide]	9
RLKHSCLLALKRAADLLGQRSSST (also called peptide c)) [Genematch peptide]	1
VATRRLSGFLRTLADRLEGTKELL (also called peptide e)) [Mina53 peptide]	20
DMWDTRIAKLRVSADSFVRQQEA (also called peptide d)) [Loc 51569 peptide]	8
